Targets include p85α nSH2 (325-430) (human, UniProt P27986 325-430); p85β nSH2 (312-425) (mouse, UniProt O08908 312-425); p85α cSH2 (614-720) (human, UniProt P27986 614-720); p85α nSH2 R358M (human, UniProt P27986 325-430, R358M).
Assay in all cases: FP
Another assay has as its target T1, p85β cSH2 (603-712) (mouse, UniProt O08908 603-712).
T1 chain: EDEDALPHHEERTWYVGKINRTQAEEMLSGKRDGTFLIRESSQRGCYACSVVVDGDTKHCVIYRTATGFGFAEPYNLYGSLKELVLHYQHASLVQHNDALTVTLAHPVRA

This is an account of results in article doi:10.1101/791277 (2019).

Where no end group is shown, it is not given here. [ ]: non-standard residue; d: D form. The star is where a group is joined. 5FAM = O=C1OC2(c3ccc(O)cc3Oc3cc(O)ccc32)c2ccc(C(=O)*)cc21; pY = N[C@@H](Cc1ccc(OP(=O)(O)O)cc1)C(=O)O

Sequence of p85α cSH2 (614-720) (P27986 614-720): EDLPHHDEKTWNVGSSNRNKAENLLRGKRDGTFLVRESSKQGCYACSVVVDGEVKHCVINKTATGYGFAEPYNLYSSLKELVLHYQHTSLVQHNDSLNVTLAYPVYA
Sequence of p85α nSH2 (325-430) (P27986 325-430): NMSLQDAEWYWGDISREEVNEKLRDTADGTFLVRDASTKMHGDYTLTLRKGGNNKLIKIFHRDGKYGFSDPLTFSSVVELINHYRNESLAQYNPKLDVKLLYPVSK
Sequence of p85β nSH2 (312-425) (O08908 312-425): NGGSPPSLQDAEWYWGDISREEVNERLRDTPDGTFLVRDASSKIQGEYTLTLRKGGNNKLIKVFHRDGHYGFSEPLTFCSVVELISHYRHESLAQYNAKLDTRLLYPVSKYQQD
Sequence of p85α nSH2 R358M (P27986 325-430 R358M): as the sequence (P27986 325-430) above, with R34M counted along it

As to 5FAM-TEDQ[pY]SLMEDE [p85β pY607 peptide, [5-FAM]-TEDQ-[pY]-SLMEDE], the dissociation constant Kd with p85α nSH2 (325-430) is 82 nM; with p85β nSH2 (312-425), 52 nM; with p85α cSH2 (614-720) it was 656 nM; with p85α nSH2 R358M, 2900 nM.
On to 5FAM-TEDQ[pY]SLVEDE [p85α pY607 peptide, [5-FAM]-TEDQ-[pY]-SLVEDE], for which the Kd in the assay with p85α nSH2 (325-430) came out at 2400 nM; with p85β nSH2 (312-425), 9000 nM; in the assay with p85α cSH2 (614-720), 84000 nM.
Regarding 5FAM-SD[pY]MNMTP [CD28 peptide, [5-FAM]-SD-[pY]-MNMTP], the figures for the Kd with p85β cSH2 (603-712) and in the assay with p85α cSH2 (614-720) were 100 nM and 43 nM, respectively.
